Drawing on doi:10.1101/2021.12.21.473685 (bioRxiv, 2021), this text covers Kd for six molecules.

The target in one series is PARylated PARP2 (human, UniProt Q9UGN5-2 1-570, poly(ADP-ribose) chains added by in vitro automodification; modified residues not stated). The experiment in a line: ITC.
In a further series the target is ZnF(1-2-3)-BRCT PARP1 (Homo sapiens, UniProt P09874 1-494). The experiment in a line: fluorescence polarization.
The target of a further series is PARP1 full length (Homo sapiens, UniProt P09874 1-1014). The experiment in a line: fluorescence polarization.
Sequence of PARP1 full length (P09874 whole entry): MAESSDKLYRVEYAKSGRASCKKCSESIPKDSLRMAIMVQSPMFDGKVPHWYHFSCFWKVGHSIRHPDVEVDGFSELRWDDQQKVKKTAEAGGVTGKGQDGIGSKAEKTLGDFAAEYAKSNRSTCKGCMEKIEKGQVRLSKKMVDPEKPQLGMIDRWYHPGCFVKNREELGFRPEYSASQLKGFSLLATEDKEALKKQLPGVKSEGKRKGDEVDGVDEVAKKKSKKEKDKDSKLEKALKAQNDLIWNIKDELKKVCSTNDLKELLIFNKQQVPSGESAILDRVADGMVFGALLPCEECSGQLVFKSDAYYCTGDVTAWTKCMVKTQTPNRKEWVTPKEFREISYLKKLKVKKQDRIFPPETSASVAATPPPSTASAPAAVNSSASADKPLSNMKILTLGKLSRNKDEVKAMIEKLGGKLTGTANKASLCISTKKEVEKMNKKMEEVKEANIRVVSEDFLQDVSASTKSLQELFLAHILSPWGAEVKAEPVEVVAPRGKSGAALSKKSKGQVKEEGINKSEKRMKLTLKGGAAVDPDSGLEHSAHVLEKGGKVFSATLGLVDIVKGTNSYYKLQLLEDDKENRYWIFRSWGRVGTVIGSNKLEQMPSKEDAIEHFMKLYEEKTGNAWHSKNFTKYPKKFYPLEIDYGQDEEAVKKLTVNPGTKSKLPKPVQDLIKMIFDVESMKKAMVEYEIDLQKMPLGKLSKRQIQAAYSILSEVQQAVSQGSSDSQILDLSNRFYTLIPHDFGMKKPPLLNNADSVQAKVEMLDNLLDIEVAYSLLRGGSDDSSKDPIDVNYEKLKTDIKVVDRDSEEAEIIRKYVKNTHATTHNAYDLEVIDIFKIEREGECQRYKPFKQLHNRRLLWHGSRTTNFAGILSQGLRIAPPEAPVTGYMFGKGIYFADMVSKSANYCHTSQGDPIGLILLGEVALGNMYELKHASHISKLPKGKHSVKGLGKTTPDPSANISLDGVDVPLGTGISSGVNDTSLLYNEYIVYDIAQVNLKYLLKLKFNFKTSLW

Sequence of ZnF(1-2-3)-BRCT PARP1 (P09874 1-494): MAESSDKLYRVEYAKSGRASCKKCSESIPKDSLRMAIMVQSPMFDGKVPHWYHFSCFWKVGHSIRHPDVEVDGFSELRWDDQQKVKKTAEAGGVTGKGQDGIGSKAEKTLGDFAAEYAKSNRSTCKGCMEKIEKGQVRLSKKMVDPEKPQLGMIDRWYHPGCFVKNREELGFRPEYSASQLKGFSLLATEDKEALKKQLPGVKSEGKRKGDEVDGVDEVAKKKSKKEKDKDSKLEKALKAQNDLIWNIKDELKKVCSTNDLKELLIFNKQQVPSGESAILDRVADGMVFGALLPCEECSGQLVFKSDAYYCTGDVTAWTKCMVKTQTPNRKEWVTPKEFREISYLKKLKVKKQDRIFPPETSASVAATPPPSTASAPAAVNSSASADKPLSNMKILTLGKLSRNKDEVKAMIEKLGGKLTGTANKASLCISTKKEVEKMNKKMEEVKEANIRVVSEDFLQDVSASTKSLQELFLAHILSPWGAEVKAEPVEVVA

On to “BRCT domain of PARP1 (from UniProt P09874 385-476) (domain or fragment)”, for which, in the series with PARylated PARP2, the Kd came to 2000 nM. In other words, the single-digit micromolar range.
Same read-out and setting: the figure for “ZnF3 domain of PARP1 (domain or fragment)” is 2000 nM.
Same read-out and setting: the figure for “WGR domain of PARP1 (domain or fragment)” is 3000 nM.

B1: ZnF3-BRCT-WGR of PARP1 (domain or fragment)
chain: VDEVAKKKSKKEKDKDSKLEKALKAQNDLIWNIKDELKKVCSTNDLKELLIFNKQQVPSGESAILDRVADGMVFGALLPCEECSGQLVFKSDAYYCTGDVTAWTKCMVKTQTPNRKEWVTPKEFREISYLKKLKVKKQDRIFPPETSASVAATPPPSTASAPAAVNSSASADKPLSNMKILTLGKLSRNKDEVKAMIEKLGGKLTGTANKASLCISTKKEVEKMNKKMEEVKEANIRVVSEDFLQDVSASTKSLQELFLAHILSPWGAEVKAEPVEVVAPRGKSGAALSKKSKGQVKEEGINKSEKRMKLTLKGGAAVDPDSGLEHSAHVLEKGGKVFSATLGLVDIVKGTNSYYKLQLLEDDKENRYWIFRSWGRVGTVIGSNKLEQMPSKEDAIEHFMKLYEEKTGNAWHSKNFTKYPKKFYPLEIDYGQDEEAVKKLTVNPGT
For the molecule B1, binding in the series with PARylated PARP2 was put at a Kd of 40 nM.
In the case of GCTGGCTTCGTAAGAAGCCAGCTCGCGGTCAGCTTGCTGACCGCG (structured_DNA, 5'-phosphate (printed for unlabelled oligo)) [SSB DNA dumbbell 45-mer (5-FAM labelled)], the Kd with ZnF(1-2-3)-BRCT PARP1 is around 70 nM; in the series with PARP1 full length it was around 64 nM.

B2: DSB DNA (5-FAM labelled) (dsDNA)
DNA 1: GCCTACCGGTTCGAATGGCAGC
DNA 2: GCTGCCATTCGAACCGGTAGGC
B2: the results for the Kd with ZnF(1-2-3)-BRCT PARP1 and in the series with PARP1 full length were around 88 nM and around 15 nM, respectively.
